Experimental data reported in patent publication US20240132548A1 (Janssen / Centocor, published 2024).

How the values were obtained:
Experiment in all cases: BLI (Octet), biotinylated mAb on streptavidin sensors, culture supernatant
[1] = biological target: T1, RSV180907 (tag-free, RSV FB signal peptide) (respiratory syncytial virus, subgroup B …, UniProt O36634 26-109; P13843 137-540)
T1 construct: Same mature protein as RSV180913, expressed with the RSV B signal peptide; measured in culture supernatant, furin co-transfected
T1 chain 1: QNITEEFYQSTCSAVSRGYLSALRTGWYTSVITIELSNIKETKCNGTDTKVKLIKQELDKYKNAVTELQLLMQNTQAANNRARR
T1 chain 2: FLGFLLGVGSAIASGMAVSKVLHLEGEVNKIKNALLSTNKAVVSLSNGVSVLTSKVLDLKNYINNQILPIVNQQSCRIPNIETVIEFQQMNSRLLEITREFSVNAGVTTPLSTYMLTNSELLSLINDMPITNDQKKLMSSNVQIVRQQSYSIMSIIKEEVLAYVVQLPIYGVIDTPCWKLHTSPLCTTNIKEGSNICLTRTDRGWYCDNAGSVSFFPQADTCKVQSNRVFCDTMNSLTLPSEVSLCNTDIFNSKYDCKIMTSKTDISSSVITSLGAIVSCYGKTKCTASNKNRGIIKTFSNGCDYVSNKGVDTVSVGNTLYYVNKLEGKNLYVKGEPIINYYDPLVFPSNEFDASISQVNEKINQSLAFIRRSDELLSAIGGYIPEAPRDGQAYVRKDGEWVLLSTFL
Method: (§1) Quantitative Octet (BioLayer Interferometry) was used for measuring protein concentration in the supernatants at day of harvest and after 7 or 30 days storage at 4° C. CR9501 (an antibody specifically recognizing pre-fusion RSV F protein, which comprises the variable regions of the antibodies 58C5 as described in WO2012/006596) and CR9506 (recognizing pre-fusion and post-fusion RSV F protein and comprising a heavy chain variable region comprising SEQ ID NO: 21, and a light chain variable region comprising SEQ ID NO: 22) were biotinylated by standard protocols and immobilized on Streptavidin biosensors (ForteBio, Portsmouth, UK).
(§2) Afterwards, the coated biosensors were blocked in mock cell culture supernatant. A quantitative experiment was performed as follows: temperature 30° C., shaking speed 1000 rpm, time of the assay 300 sec. The concentration of the protein was calculated using a standard curve. The standard curve was prepared for each coated antibody CR9501 and CR9506 using the pre-fusion RSV FA protein (SEQ ID NO: 19; described previously in WO17174568) diluted in mock medium. […] The data analysis was done using the ForteBio Data Analysis 10.0.1.6 software (ForteBio).

[2] = biological target: T2, RSV190417 (tag-free; I152M + K226M + D486N + S215P + L203I + P101Q + D489Y) (respiratory syncytial virus, subgroup B …, UniProt O36634 26-109; P13843 137-540)
T2 construct: Measured in culture supernatant, furin co-transfected
T2 chain 1: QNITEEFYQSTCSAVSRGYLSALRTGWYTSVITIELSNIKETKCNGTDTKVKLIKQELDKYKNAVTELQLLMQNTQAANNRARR
T2 chain 2: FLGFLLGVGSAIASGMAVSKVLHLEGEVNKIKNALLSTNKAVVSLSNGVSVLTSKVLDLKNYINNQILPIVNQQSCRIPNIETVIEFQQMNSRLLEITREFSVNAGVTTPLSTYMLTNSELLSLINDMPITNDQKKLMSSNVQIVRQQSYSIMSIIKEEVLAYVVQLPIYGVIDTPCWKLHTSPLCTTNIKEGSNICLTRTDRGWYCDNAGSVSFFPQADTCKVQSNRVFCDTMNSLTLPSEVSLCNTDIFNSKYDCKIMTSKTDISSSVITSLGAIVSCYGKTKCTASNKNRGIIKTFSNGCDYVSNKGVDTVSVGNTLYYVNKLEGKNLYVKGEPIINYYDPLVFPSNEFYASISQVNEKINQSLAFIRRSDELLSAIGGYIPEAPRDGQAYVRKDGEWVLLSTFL
Method: as §1, §2

[3] = biological target: T3, RSV181177, non-stabilized RSV F B consensus soluble polypeptide with foldon and C-tag (respiratory syncytial virus, subgroup B …, UniProt O36634 26-109; O36634 137-540)
T3 construct: Measured in crude culture supernatant, no furin co-transfection; processing may be incomplete; End 551 is the end of the entry as counted; also called non-stabilized RSV F type B; non-stabilized F
T3 chain 1: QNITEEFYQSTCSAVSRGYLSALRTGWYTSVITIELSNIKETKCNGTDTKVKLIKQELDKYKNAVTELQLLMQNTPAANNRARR
T3 chain 2: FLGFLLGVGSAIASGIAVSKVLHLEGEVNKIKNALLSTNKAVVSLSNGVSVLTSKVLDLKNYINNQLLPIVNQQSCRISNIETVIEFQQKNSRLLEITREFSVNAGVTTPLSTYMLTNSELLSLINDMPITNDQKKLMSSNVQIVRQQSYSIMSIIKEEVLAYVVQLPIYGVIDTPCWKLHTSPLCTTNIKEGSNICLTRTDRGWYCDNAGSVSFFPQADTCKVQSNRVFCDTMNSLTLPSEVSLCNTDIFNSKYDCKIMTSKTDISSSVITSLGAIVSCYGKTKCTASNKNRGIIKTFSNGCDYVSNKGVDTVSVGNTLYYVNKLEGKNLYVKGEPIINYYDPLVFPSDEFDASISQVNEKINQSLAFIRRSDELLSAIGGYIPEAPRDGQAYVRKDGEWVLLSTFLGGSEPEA
Method: as §1, §2

[4] = biological target: T4, RSV180915 (I152M + K226M + D486N + S215P) (respiratory syncytial virus, subgroup B …, UniProt O36634 26-109; P13843 137-540)
T4 chain 1: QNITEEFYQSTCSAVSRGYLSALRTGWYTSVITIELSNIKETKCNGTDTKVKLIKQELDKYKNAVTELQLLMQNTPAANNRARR
T4 chain 2: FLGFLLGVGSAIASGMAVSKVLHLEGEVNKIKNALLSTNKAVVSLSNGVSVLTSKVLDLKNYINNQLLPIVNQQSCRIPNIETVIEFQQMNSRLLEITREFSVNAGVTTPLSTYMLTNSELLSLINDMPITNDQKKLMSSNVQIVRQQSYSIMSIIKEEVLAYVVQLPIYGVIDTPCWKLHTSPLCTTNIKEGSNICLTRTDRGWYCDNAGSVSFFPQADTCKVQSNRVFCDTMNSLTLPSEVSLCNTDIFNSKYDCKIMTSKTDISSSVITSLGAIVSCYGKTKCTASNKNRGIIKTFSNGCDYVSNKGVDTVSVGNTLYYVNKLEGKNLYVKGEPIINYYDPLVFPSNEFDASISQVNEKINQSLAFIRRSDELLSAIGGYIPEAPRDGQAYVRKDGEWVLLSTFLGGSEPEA
Method: as §1, §2

Measured: binding result

B1: CR9506 (antibody, human IgG1, kappa, V domains shown)
VH: EVQLVQSGAEVKKPGSSVKVSCKASGGTFSRSLITWVRQAPGQGLEWMGEISLVFGSAKNAQKFQGRVTITADESTSTAHMEMISLKHEDTAVYYCAAHQYGSGTHNNFWDESELRFDLWGQGTLVTVSS
VL: DIVMTQSPSSLSASVGDRVTIACRASQSIGTYLNWYQQKPGKAPKLLIYAASSLQSGVPSRFSGSGSGTHFTLAISSLQAEDFATYSCQQSYTIPYTFGQGTKLEIKR
notes: Biotinylated for Octet; coated and also used HRP-labelled as detection antibody in the ELISA
binds: all assays above
